Measurements taken from US20120282612A1.

Assays:
[1] = target: PSA in seminal fluid of normal men (human) (UniProt P07288); test: MAA-Sepharose column, 5 ng purified PSA applied, 3.5 ng recovered in all fractions
[2] = target: PSA (prostate specific antigen) in serum of prostate cancer patient (human) (UniProt P07288); test: UEA-I agarose column, binding rate of PSA
[3] = target: PSA (prostate specific antigen) in serum of prostate cancer patient (human) (UniProt P07288); test: TJA-II-Sepharose column, binding rate of PSA
[4] = target: PSA (prostate specific antigen) in serum of prostatic hypertrophy patient (human) (UniProt P07288); test: TJA-II-Sepharose column, binding rate of PSA
[5] = target: PSA in seminal fluid of normal men (human) (UniProt P07288); test: TJA-II-Sepharose column, binding rate of PSA
[6] = target: Sialidase-treated PSA in seminal fluid of normal men (human) (UniProt P07288); test: TJA-II-Sepharose column, sialidase-treated sample
[7] = target: Sialidase-treated PSA in serum of prostate cancer patient (human) (UniProt P07288); test: TJA-II-Sepharose column, sialidase-treated sample
[8] = target: Sialidase-treated PSA in serum of prostatic hypertrophy patient (human) (UniProt P07288); test: TJA-II-Sepharose column, sialidase-treated sample
[9] = target: PSA (prostate specific antigen) in serum of prostate cancer patient (human) (UniProt P07288); test: TJA-II-Sepharose column, 20 sera of prostate cancer patients
[10] = target: PSA (prostate specific antigen) in serum of prostatic hypertrophy patient (human) (UniProt P07288); test: TJA-II-Sepharose column, 20 sera of prostatic hypertrophy patients
[11] = target: PSA (prostate specific antigen) in serum of prostate cancer patient (human) (UniProt P07288); test: TJA-II-Sepharose column, before sialidase treatment (Table 4 prints 16%)
[12] = target: PSA (prostate specific antigen) in serum of prostate cancer patient (human) (UniProt P07288); test: TJA-II-Sepharose column, serum of prostate cancer patient 1; total PSA immunoassay of fractions
[13] = target: PSA (prostate specific antigen) in serum of prostate cancer patient (human) (UniProt P07288); test: TJA-II-Sepharose column, serum of prostate cancer patient 2; total PSA immunoassay of fractions
[14] = target: PSA (prostate specific antigen) in serum of prostate cancer patient (human) (UniProt P07288); test: TJA-II-Sepharose column, serum of prostate cancer patient 3; total PSA immunoassay of fractions
[15] = target: PSA (prostate specific antigen) in serum of prostate cancer patient (human) (UniProt P07288); test: TJA-II-Sepharose column, serum of prostate cancer patient 4; total PSA immunoassay of fractions
[16] = target: PSA (prostate specific antigen) in serum of prostate cancer patient (human) (UniProt P07288); test: TJA-II-Sepharose column, serum of prostate cancer patient 5; total PSA immunoassay of fractions
[17] = target: PSA (prostate specific antigen) in serum of prostate cancer patient (human) (UniProt P07288); test: TJA-II-Sepharose column, serum of prostate cancer patient 6; total PSA immunoassay of fractions
[18] = target: PSA (prostate specific antigen) in serum of prostate cancer patient (human) (UniProt P07288); test: TJA-II-Sepharose column, serum of prostate cancer patient 7; total PSA immunoassay of fractions
[19] = target: PSA (prostate specific antigen) in serum of prostate cancer patient (human) (UniProt P07288); test: TJA-II-Sepharose column, serum of prostate cancer patient 8; total PSA immunoassay of fractions
[20] = target: PSA (prostate specific antigen) in serum of prostate cancer patient (human) (UniProt P07288); test: TJA-II-Sepharose column, serum of prostate cancer patient 9; total PSA immunoassay of fractions
[21] = target: PSA (prostate specific antigen) in serum of prostate cancer patient (human) (UniProt P07288); test: TJA-II-Sepharose column, serum of prostate cancer patient 10; total PSA immunoassay of fractions
[22] = target: PSA (prostate specific antigen) in serum of prostate cancer patient (human) (UniProt P07288); test: TJA-II-Sepharose column, serum of prostate cancer patient 11; total PSA immunoassay of fractions
[23] = target: PSA (prostate specific antigen) in serum of prostate cancer patient (human) (UniProt P07288); test: TJA-II-Sepharose column, serum of prostate cancer patient 12; total PSA immunoassay of fractions
[24] = target: PSA (prostate specific antigen) in serum of prostate cancer patient (human) (UniProt P07288); test: TJA-II-Sepharose column, serum of prostate cancer patient 13; total PSA immunoassay of fractions
[25] = target: PSA (prostate specific antigen) in serum of prostate cancer patient (human) (UniProt P07288); test: TJA-II-Sepharose column, serum of prostate cancer patient 14; total PSA immunoassay of fractions
[26] = target: PSA (prostate specific antigen) in serum of prostate cancer patient (human) (UniProt P07288); test: TJA-II-Sepharose column, serum of prostate cancer patient 15; total PSA immunoassay of fractions
[27] = target: PSA (prostate specific antigen) in serum of prostatic hypertrophy patient (human) (UniProt P07288); test: TJA-II-Sepharose column, serum of prostatic hypertrophy patient 1; total PSA immunoassay of fractions
[28] = target: PSA (prostate specific antigen) in serum of prostatic hypertrophy patient (human) (UniProt P07288); test: TJA-II-Sepharose column, serum of prostatic hypertrophy patient 2; total PSA immunoassay of fractions
[29] = target: PSA (prostate specific antigen) in serum of prostatic hypertrophy patient (human) (UniProt P07288); test: TJA-II-Sepharose column, serum of prostatic hypertrophy patient 3; total PSA immunoassay of fractions
[30] = target: PSA (prostate specific antigen) in serum of prostatic hypertrophy patient (human) (UniProt P07288); test: TJA-II-Sepharose column, serum of prostatic hypertrophy patient 4; total PSA immunoassay of fractions
[31] = target: PSA (prostate specific antigen) in serum of prostatic hypertrophy patient (human) (UniProt P07288); test: TJA-II-Sepharose column, serum of prostatic hypertrophy patient 5; total PSA immunoassay of fractions
[32] = target: PSA (prostate specific antigen) in serum of prostatic hypertrophy patient (human) (UniProt P07288); test: TJA-II-Sepharose column, serum of prostatic hypertrophy patient 6; total PSA immunoassay of fractions
[33] = target: PSA (prostate specific antigen) in serum of prostatic hypertrophy patient (human) (UniProt P07288); test: TJA-II-Sepharose column, serum of prostatic hypertrophy patient 7; total PSA immunoassay of fractions
[34] = target: PSA (prostate specific antigen) in serum of prostatic hypertrophy patient (human) (UniProt P07288); test: TJA-II-Sepharose column, serum of prostatic hypertrophy patient 8; total PSA immunoassay of fractions
[35] = target: PSA (prostate specific antigen) in serum of prostatic hypertrophy patient (human) (UniProt P07288); test: TJA-II-Sepharose column, serum of prostatic hypertrophy patient 9; total PSA immunoassay of fractions
[36] = target: PSA (prostate specific antigen) in serum of prostate cancer patient (human) (UniProt P07288); test: WFA-Sepharose column, binding rate of PSA
[37] = target: PSA (prostate specific antigen) in serum of prostate cancer patient (human) (UniProt P07288); test: WFA-Sepharose column, serum of prostate cancer patient 6; total PSA immunoassay of fractions
[38] = target: PSA (prostate specific antigen) in serum of prostate cancer patient (human) (UniProt P07288); test: WFA-Sepharose column, serum of prostate cancer patient 12; total PSA immunoassay of fractions
[39] = target: PSA (prostate specific antigen) in serum of prostate cancer patient (human) (UniProt P07288); test: WFA-Sepharose column, serum of prostate cancer patient 15; total PSA immunoassay of fractions

Maackia amurensis agglutinin, sequence (P0DKL3 30-278): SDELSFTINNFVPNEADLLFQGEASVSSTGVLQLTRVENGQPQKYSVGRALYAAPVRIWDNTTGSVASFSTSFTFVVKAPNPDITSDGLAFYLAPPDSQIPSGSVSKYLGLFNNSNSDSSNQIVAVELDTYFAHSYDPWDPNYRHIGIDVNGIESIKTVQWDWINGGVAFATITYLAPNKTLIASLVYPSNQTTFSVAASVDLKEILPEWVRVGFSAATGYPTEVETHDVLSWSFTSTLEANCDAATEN

Substance: Maackia amurensis agglutinin
- percent considered bound to the column [1]: 30%

Substance: Ulex europaeus agglutinin-1 (from UniProt P22972 1-243)
- binding rate [2]: 5%

Substance: Trichosanthes japonica agglutinin-II
- binding rate [3]: 16%
- binding rate [4]: 2%
- binding rate [5]: 2%
- binding rate [6]: 8.4%
- binding rate [7]: 59%
- binding rate [8]: 2%
- TJA-II binding rate [9]: > 2%
- TJA-II binding rate [10]: < 2%
- binding rate [11]: 11%
- TJA-II binding ratio [12]: 6.4%
- TJA-II-bound PSA in serum sample [12]: 128 ng/mL
- TJA-II binding ratio [13]: 5%
- TJA-II-bound PSA in serum sample [13]: 6.6 ng/mL
- TJA-II binding ratio [14]: 3%
- TJA-II-bound PSA in serum sample [14]: 2.4 ng/mL
- TJA-II binding ratio [15]: 4.5%
- TJA-II-bound PSA in serum sample [15]: 9.5 ng/mL
- TJA-II binding ratio [16]: 7%
- TJA-II-bound PSA in serum sample [16]: 6.3 ng/mL
- TJA-II binding ratio [17]: 10.8%
- TJA-II-bound PSA in serum sample [17]: 388 ng/mL
- TJA-II binding ratio [18]: 8.2%
- TJA-II-bound PSA in serum sample [18]: 5.58 ng/mL
- TJA-II binding ratio [19]: 21%
- TJA-II-bound PSA in serum sample [19]: 0.9 ng/mL
- TJA-II binding ratio [20]: 14%
- TJA-II-bound PSA in serum sample [20]: 0.84 ng/mL
- TJA-II binding ratio [21]: 4.6%
- TJA-II-bound PSA in serum sample [21]: 0.46 ng/mL
- TJA-II binding ratio [22]: 23%
- TJA-II-bound PSA in serum sample [22]: 1.04 ng/mL
- TJA-II binding ratio [23]: 8%
- TJA-II-bound PSA in serum sample [23]: 4.3 ng/mL
- TJA-II binding ratio [24]: 5%
- TJA-II-bound PSA in serum sample [24]: 0.24 ng/mL
- TJA-II binding ratio [25]: 4%
- TJA-II-bound PSA in serum sample [25]: 0.85 ng/mL
- TJA-II binding ratio [26]: 5%
- TJA-II-bound PSA in serum sample [26]: 0.61 ng/mL
- TJA-II binding ratio [27]: 1.2%
- TJA-II-bound PSA in serum sample [27]: 0.2 ng/mL
- TJA-II binding ratio [28]: < 0.05%
- TJA-II binding ratio [29]: 0.2%
- TJA-II-bound PSA in serum sample [29]: 0.02 ng/mL
- TJA-II binding ratio [30]: 0.6%
- TJA-II-bound PSA in serum sample [30]: 0.04 ng/mL
- TJA-II binding ratio [31]: 1.5%
- TJA-II-bound PSA in serum sample [31]: 0.12 ng/mL
- TJA-II binding ratio [32]: 1.8%
- TJA-II-bound PSA in serum sample [32]: 0.17 ng/mL
- TJA-II binding ratio [33]: < 0.05%
- TJA-II binding ratio [34]: 1%
- TJA-II-bound PSA in serum sample [34]: 0.09 ng/mL
- TJA-II binding ratio [35]: < 0.05%

Substance: Wisteria floribunda agglutinin
- binding rate [36]: 11%
- WFA binding ratio [37]: 9.4%
- WFA-bound PSA in serum sample [37]: 328 ng/mL
- WFA binding ratio [38]: 7.5%
- WFA-bound PSA in serum sample [38]: 3.91 ng/mL
- WFA binding ratio [39]: 4.2%
- WFA-bound PSA in serum sample [39]: 0.49 ng/mL
